# Test results reported in patent US20120046217A1 (SUNGKYUNKWAN UNIVERSITY FOUNDATION FOR CORPORATE …, published 2012).
# T1: Flag-TNFR1 (UniProt P19438 30-455, limits assumed)
# T1 construct: whole, on cells; The receptor sat on the membrane of transfected HEK293 cells; not shown: Flag tag
# T1 sequence (looked up): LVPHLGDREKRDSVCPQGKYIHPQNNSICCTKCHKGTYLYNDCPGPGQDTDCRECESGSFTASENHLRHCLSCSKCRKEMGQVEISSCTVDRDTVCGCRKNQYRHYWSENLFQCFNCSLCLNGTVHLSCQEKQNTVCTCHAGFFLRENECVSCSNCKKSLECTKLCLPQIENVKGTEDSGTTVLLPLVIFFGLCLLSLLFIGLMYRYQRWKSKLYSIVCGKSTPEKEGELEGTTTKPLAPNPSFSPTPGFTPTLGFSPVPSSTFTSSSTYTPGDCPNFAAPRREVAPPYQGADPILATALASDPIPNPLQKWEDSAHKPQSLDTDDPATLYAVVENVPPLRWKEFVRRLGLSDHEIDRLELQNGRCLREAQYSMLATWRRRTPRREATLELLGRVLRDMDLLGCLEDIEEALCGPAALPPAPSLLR
# Molecular target: T1, Flag-TNFR1
# Assay: co-immunoprecipitation of truncated mutants co-transfected with TNFR1
# Experimental: The cells were washed with RIPA buffer, and protein-A/G-agarose beads (Santa Cruz) were added in an amount of 20 μL/tube to perform immunoprecipitation. According to the molecular weights of the truncated mutants, […] 15% SDS-PAGE gel electrophoresis was carried out, followed by Western blotting with an Myc antibody (FIG. 9).
row,Binder,binding result
1,"truncated mutant consisting of an IGFBP5 N-terminal domain (other, not shown: Myc tag from vector pSecTaq2/Hygro A) LGSFVHCEPCDEKALSMCPPSPLGCELVKEPGCGCCMTCALAEGQSCGVYTERCAQGLRCLPRQDEEKPLHALLHGRGVC",no binding
2,"truncated mutant consisting of an IGFBP5 C-terminal domain (other, not shown: Myc tag from vector pSecTaq2/Hygro A) QGPCRRHMEASLQELKASPRMVPRAVYLPNCDRKGFYKRKQCKPSRGRKRGICWCVDKYGMKLPGMEYVDGDFQCHTFDSSNVE",no binding
